Test results reported in patent publication US20040018558A1 (published 2004).
Where no end group is shown, it is not given here.

T1: human thrombin receptor (PAR1) (human, UniProt P25116 42-425)
T1 sequence (looked up): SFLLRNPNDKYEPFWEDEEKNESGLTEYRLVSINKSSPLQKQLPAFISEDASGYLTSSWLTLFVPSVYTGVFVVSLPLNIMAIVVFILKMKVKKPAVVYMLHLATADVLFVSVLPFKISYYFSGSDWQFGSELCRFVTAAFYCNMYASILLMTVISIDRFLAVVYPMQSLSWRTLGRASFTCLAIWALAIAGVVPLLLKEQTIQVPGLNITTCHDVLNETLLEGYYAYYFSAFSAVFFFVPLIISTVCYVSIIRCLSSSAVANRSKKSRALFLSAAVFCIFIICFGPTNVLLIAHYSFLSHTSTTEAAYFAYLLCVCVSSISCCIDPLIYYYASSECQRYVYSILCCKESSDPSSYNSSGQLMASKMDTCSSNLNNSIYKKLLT

B1: Gαi C-terminal minigene peptide (pcDNA-Gαi) (peptide)
peptide: MGIKNNLKDCGLF
B2: Gαq C-terminal minigene peptide (pcDNA-Gαq) (peptide)
peptide: MGLQLNLKEYNAV
B3: Gα12 C-terminal minigene peptide (pcDNA-Gα12) (peptide)
peptide: MGLQENLKDIMLQ
B4: Gα13 C-terminal minigene peptide (pcDNA-Gα13) (peptide)
peptide: MGLHDNLKQLMLQ
B5: GαiR control minigene peptide (Gαi1/2 carboxyl terminus in random order) (peptide)
peptide: MGNGIKCLFNDKL
B6: Clone No. 33/37 (Table X) SLEILKDWGLF (peptide, not shown: small tags and cut ends)
chain: SLEILKDWGLF
modifications: also: fused to LacI carrier via linker, letters not given here
B7: Clone No. 26 (Table X) IRENFKYLGLW (peptide, not shown: small tags and cut ends)
chain: IRENFKYLGLW
modifications: also: fused to LacI carrier via linker, letters not given here
B8: Clone No. 41 (Table X) IRGTLKGWGLF (peptide, not shown: small tags and cut ends)
chain: IRGTLKGWGLF
modifications: also: fused to LacI carrier via linker, letters not given here
B9: Clone No. 3 (Table X) VRDNLKNCFLF (peptide, not shown: small tags and cut ends)
chain: VRDNLKNCFLF
modifications: also: fused to LacI carrier via linker, letters not given here
B10: Clone No. 7 (Table X) IGEQIEDCGPF (peptide, not shown: small tags and cut ends)
chain: IGEQIEDCGPF
modifications: also: fused to LacI carrier via linker, letters not given here
B11: Clone No. 17 (Table X) IRNNLKRYGMF (peptide, not shown: small tags and cut ends)
chain: IRNNLKRYGMF
modifications: also: fused to LacI carrier via linker, letters not given here
B12: Clone No. 21 (Table X) IRENLKDLGLV (peptide, not shown: small tags and cut ends)
chain: IRENLKDLGLV
modifications: also: fused to LacI carrier via linker, letters not given here
B13: Clone No. 2 (Table X) IREKWKDLALF (peptide, not shown: small tags and cut ends)
chain: IREKWKDLALF
modifications: also: fused to LacI carrier via linker, letters not given here
B14: Peptide 8 (LLENLRDCGMF) (peptide)
peptide: LLENLRDCGMF
notes: also called HAP
B15: L17 ILQNLKDCGLF (peptide, not shown: small tags and cut ends)
chain: ILQNLKDCGLF
modifications: also: fused to fusion carrier of the lysate via linker, not given here
B16: L13 ISKNLRDCGLL (peptide, not shown: small tags and cut ends)
chain: ISKNLRDCGLL
modifications: also: fused to fusion carrier of the lysate via linker, not given here
B17: L15 VRDILKDCGLF (peptide, not shown: small tags and cut ends)
chain: VRDILKDCGLF
modifications: also: fused to fusion carrier of the lysate via linker, not given here
B18: L14 LRENLKDCGLL (peptide, not shown: small tags and cut ends)
chain: LRENLKDCGLL
modifications: also: fused to fusion carrier of the lysate via linker, not given here
B19: Clone No. 13 (Table IX) IRGSLKDCGLF (peptide, not shown: small tags and cut ends)
chain: IRGSLKDCGLF
modifications: also: fused to LacI carrier via linker, letters not given here
notes: also called L20
B20: L34 ILESLNECGLF (peptide, not shown: small tags and cut ends)
chain: ILESLNECGLF
modifications: also: fused to fusion carrier of the lysate via linker, not given here
B21: L38 LLDILKDCGLF (peptide, not shown: small tags and cut ends)
chain: LLDILKDCGLF
modifications: also: fused to lysate carrier and linker, not given here
B22: L8 IVKNLEDCGLF (peptide, not shown: small tags and cut ends)
chain: IVKNLEDCGLF
modifications: also: fused to lysate carrier and linker, not given here
B23: L10 IHDRLKDCGLF (peptide, not shown: small tags and cut ends)
chain: IHDRLKDCGLF
modifications: also: fused to fusion carrier of the lysate via linker, not given here
notes: first of two rows labelled L10
B24: Clone No. 3 (Table XVIII) ILENLKDCGLL (peptide, not shown: small tags and cut ends)
chain: ILENLKDCGLL
modifications: also: fused to LacI carrier via linker, letters not given here

These binders were tested against T1, human thrombin receptor (PAR1) (assay: cell-based or functional assay).

Binder | decrease in thrombin-mediated HA-MAPK activity against pcDNA [%] | thrombin mediated increase of HA-MAPK activity [fold]
B1 | 59 | 
B2 | 57 | 
B3 | 50 | 
B4 | 77 | 
B5 |  | 4.46

Each binder was assayed against T2, dark-adapted rhodopsin (bovine rod outer segment membranes) (bovine, UniProt P02699 1-348, retinylidene chromophore bound to Lys-296) (assay: LacI display panning, dark-adapted ROS membranes).
T2 construct: whole, on cells; also called dark-adapted bovine rhodopsin
T2 sequence (P02699 whole entry): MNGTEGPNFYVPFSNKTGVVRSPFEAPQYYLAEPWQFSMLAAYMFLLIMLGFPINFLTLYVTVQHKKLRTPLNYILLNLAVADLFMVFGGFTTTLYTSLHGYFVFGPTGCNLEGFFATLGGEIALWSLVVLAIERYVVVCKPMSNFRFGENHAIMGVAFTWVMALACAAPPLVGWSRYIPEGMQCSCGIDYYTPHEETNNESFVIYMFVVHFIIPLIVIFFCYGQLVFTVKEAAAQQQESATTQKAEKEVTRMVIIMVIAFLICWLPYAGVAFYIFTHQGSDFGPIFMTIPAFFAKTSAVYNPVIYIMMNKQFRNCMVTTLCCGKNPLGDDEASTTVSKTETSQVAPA

Binder | binding result
B6 | binds
B7 | binds
B8 | binds
B9 | binds
B10 | binds
B11 | binds
B12 | binds
B13 | binds

What follows are binders tested against T3, light-activated rhodopsin (bovine rod outer segment membranes) (bovine, UniProt P02699 1-348, retinylidene chromophore bound to Lys-296) (assay: not detailed in the sentence).
T3 construct: whole, on cells; native receptor in membrane fragments immobilised on wells, not intact cells; also called metarhodopsin II; MII
T3 sequence (P02699 whole entry, the tested form may be a part): as the sequence (P02699 whole entry) above

Binder | fold binding against the native sequence [fold]
B14 | 1000

What follows are binders tested against T4, rhodopsin (activation state not stated) (bovine, UniProt P02699 1-348) (assay: ELISA of lysates, OD450 with receptor minus without receptor).
T4 construct: whole, on cells; same protein as m1; also called EDTA-washed rhodopsin
T4 sequence (P02699 whole entry): as above
Method: The methods of Example 7 repeated using rhodopsin screening with a Gt library. To identify the rank order of binding, the lysates were analyzed using ELISA methods in which the secondary antibody was conjugated to HRP. Following addition of the substrate, the microplate was read using a spectrophotometer. The binding is the OD₄₅₀ for wells with receptor—OD₄₅₀ for wells in which no receptor (control wells with empty lipid vesicles).

Binder | ELISA [OD450]
B15 | 0.6
B16 | 0.187
B17 | 0.621
B18 | 0.833
B19 | 0.423
B20 | 0.603
B21 | 0.823
B22 | 0.257
B23 | 0.506

Each binder was assayed against T3, light-activated rhodopsin (bovine rod …) (assay: LacI display panning, light-activated ROS membranes, peptide 8 added in rounds 3 and 4).
Method: The panning process is illustrated in FIG. 1. For screening of the library by “panning,” rhodopsin receptors prepared according to Example 5 were immobilized directly on Immulon 4 (Dynatech) microtiter wells (0.1-1 μg of protein per well) in cold 35 mM HEPES, pH 7.5, containing 0.1 mM EDTA, 50 mM KCl and 1 mM dithiothreitol (HEK/DTT). After shaking for one hour at 4° C., unbound membrane fragments were washed away with HEK/DTT. The wells were blocked with 100 μl 2% BSA in HEKL (35 mM HEPES; 0.1 mM EDTA; 50 mM KCl; 0.2 M α-lactose; pH 7.5, with 1 mM DTT). For rounds 1 and 2, BSA was used for blocking; in later rounds 1% nonfat dry milk was used. For the first round of panning, about 24 wells of a 96-well plate were used. In subsequent rounds, 8 wells with receptor and 8 wells without receptor were prepared.
To identify peptides having even higher affinity to light-activated rhodopsin than those identified by the panning procedure described in Example 7, a high affinity peptide was included in the library incubations in rounds three and four. […] Screening of the Gαt library was performed as in Example 7, except that 10 μL 100 μM ([…]) peptide 8 was included in the wells in rounds three and four. […] Residues L344, C347 and G348 remained stable whether peptide 8 was included in the screen or not.

Binder | binding result
B24 | binds
